Data reported in patent US20260097098A1.

Target: human VEGF165 (non-biotinylated) (human) (UniProt P15692)
Test: cell-based or functional assay

Chain of human VEGF165 (non-biotinylated) (human) (P15692 other isoform, or with tags, fused parts or gaps): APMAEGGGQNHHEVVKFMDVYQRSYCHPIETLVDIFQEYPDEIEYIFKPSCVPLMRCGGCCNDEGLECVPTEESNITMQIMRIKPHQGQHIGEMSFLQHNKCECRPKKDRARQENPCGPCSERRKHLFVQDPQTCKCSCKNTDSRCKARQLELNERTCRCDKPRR

EYLEA (aflibercept) (Fc fusion)
maximal inhibition of VEGF-stimulated proliferation: < 80%
